Where a chain is given by its changes, count along the chain named. Names may count otherwise.
Experiments:
[1] = target: T1, MsRuvC WT (Mycobacterium smegmatis mc2 155) (UniProt A0QWH4); assay: SPR
T1 sequence: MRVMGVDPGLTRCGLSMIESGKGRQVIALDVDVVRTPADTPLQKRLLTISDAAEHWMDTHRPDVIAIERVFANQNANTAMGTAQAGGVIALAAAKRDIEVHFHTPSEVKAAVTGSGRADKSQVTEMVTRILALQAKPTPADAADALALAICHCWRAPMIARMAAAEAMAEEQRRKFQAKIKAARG

SEC = target: the molecule itself; assay: SEC
MsRuvC WT = target: T2, MsRuvC WT (Mycobacterium smegmatis mc2 155, UniProt A0QWH4 1-185); assay: MST
T2 sequence: T1 sequence

MsRuvC-E68A = target: T3, MsRuvC-E68A (Mycobacterium smegmatis mc2 155, UniProt A0QWH4 1-185, E68A); assay: MST
T3 sequence: T1 sequence with E68A

MsRuvC-D7A = target: T4, MsRuvC-D7A (Mycobacterium smegmatis mc2 155, UniProt A0QWH4 1-185, D7A); assay: MST
T4 sequence: T1 sequence with D7A

For Replication fork, the Kd [1] was 203 nM.

Work on Splayed-arm duplex yielded a Kd [1] of 480 nM.

Molecule 3'-flap structure (SPR) has a Kd [1] of 296 nM.

Molecule dsDNA with 5'-ssDNA overhang has a Kd [1] of 201 nM.

dsDNA with 3'-ssDNA overhang was tested, and the Kd [1] was 263 nM.

5'-flap structure showed a Kd [1] of 410 nM.

B1: Mycobacterium smegmatis RuvC (enzyme)
chain: T1 sequence
For B1, the “stoichiometry N” value (SEC) was 2.

B2: MsRuvC-D7A (enzyme)
chain: T1 sequence with D7A
With B2 the “stoichiometry N” value (SEC) was 2.

B3: MsRuvC-E68A (enzyme)
chain: T1 sequence with E68A
With B3 the “stoichiometry N” value (SEC) was 2.

B4: Mobile HJ (MST) (structured_DNA)
DNA 1: GACGCTGCCGAATTCTACCAGTGCCTTGCTAGGACATCTTTGCCCACCTGCAGGTTCACCC
DNA 2: TGGGTGAACCTGCAGGTGGGCAAAGATGTCCTAGCAATGTAATCGTCAAGCTTTATGCCGTT
DNA 3: CAACGGCATAAAGCTTGACGATTACATTGCTAGGACATGCTGTCTAGAGGATCCGACTATCGA
DNA 4: ATCGATAGTCGGATCCTCTAGACAGCATGTCCTAGCAAGGCACTGGTAGAATTCGGCAGCGT
In the case of B4, the Kd (MsRuvC WT) is reported as 580 ± 270 nM, the Kd (MsRuvC-E68A) is reported as 300 ± 110 nM and the Kd (MsRuvC-D7A) is reported as 650 ± 170 nM.
